According to the RNAGym collection of RNA variant scans (doi:10.7554/elife.80360):

B1: Hammerhead Ribozyme (parent)
chain: ACCGGAUGUGCUUUCCGGUCUGAUGAGUCCGUGAGGACGAAACAG

Variants of: B1
Experiment: self-cleavage, relative activity (ratio to wild type); higher = more cleavage; co-transcriptional
With G17A G33U the self-cleavage was 0.751.
In the case of C16U C20U, the self-cleavage is reported as 0.651.
In the case of C16U C20G, the self-cleavage is reported as 0.307.
Work on C16U C20A yielded a self-cleavage of 0.524.
C16U U19A gave a self-cleavage of 0.344.
With C16U U19G the self-cleavage was 0.359.
C16U U19C showed a self-cleavage of 0.572.
For C16U G18U, the self-cleavage was 0.746.
With C16U G18C the self-cleavage was 0.529.
C16U G18A gave a self-cleavage of 0.618.
G17A G27U showed a self-cleavage of 0.495.
In the case of G17A G27C, the self-cleavage is reported as 0.399.
With G17A G27A the self-cleavage was 0.51.
G17C A44U gave a self-cleavage of 0.414.
In the case of G17C A44C, the self-cleavage is reported as 0.418.
Work on G17C A44G yielded a self-cleavage of 0.664.
C16U gave a self-cleavage of 0.983.
For C16G, the self-cleavage was 1.02.
Variant G17A G18U has a self-cleavage of 0.318.
For G17A G18A, the self-cleavage was 0.294.
Work on G17A G18C yielded a self-cleavage of 0.341.
G17C C30A gave a self-cleavage of 0.458.
G17C C30U gave a self-cleavage of 0.545.
Variant G17C C30G has a self-cleavage of 0.398.
In the case of C16G A26U, the self-cleavage is reported as 0.433.
In the case of C16G A26G, the self-cleavage is reported as 0.289.
C16G A26C showed a self-cleavage of 0.305.
Variant G17A A23G has a self-cleavage of 0.306.
G17A A23C showed a self-cleavage of 0.325.
G17A A23U gave a self-cleavage of 0.315.
C16U A42C gave a self-cleavage of 0.363.
Work on C16U A42U yielded a self-cleavage of 0.273.
C16U A42G showed a self-cleavage of 0.232.
G17A C43G showed a self-cleavage of 0.441.
G17A C43A gave a self-cleavage of 0.372.
For G17A C43U, the self-cleavage was 0.335.
C16U G35A showed a self-cleavage of 0.911.
For C16U G35C, the self-cleavage was 0.434.
In the case of C16U G35U, the self-cleavage is reported as 0.735.
In the case of C16G U24G, the self-cleavage is reported as 0.611.
For C16G U24A, the self-cleavage was 0.751.
C16G U24C gave a self-cleavage of 0.942.
Work on C16G C43A yielded a self-cleavage of 0.337.
With C16G C43U the self-cleavage was 0.285.
C16G C43G showed a self-cleavage of 0.265.
G17C A26C gave a self-cleavage of 0.355.
For G17C A26G, the self-cleavage was 0.353.
Work on G17C A26U yielded a self-cleavage of 0.326.
In the case of G17A U32G, the self-cleavage is reported as 0.613.
In the case of G17A U32C, the self-cleavage is reported as 0.812.
G17A U32A gave a self-cleavage of 0.62.
In the case of G17C A23G, the self-cleavage is reported as 0.417.
Variant G17C A23C has a self-cleavage of 0.327.
G17C A23U gave a self-cleavage of 0.326.
C16G G33C showed a self-cleavage of 0.956.
C16G G33U showed a self-cleavage of 1.09.
C16G G33A gave a self-cleavage of 0.994.
In the case of C16U A44C, the self-cleavage is reported as 0.586.
C16U A44U showed a self-cleavage of 0.845.
Variant C16U A44G has a self-cleavage of 1.34.
Work on C16U G17C yielded a self-cleavage of 0.551.
Work on C16U G17U yielded a self-cleavage of 0.714.
C16U G17A showed a self-cleavage of 0.556.
In the case of G17C C29U, the self-cleavage is reported as 0.542.
With G17C C29A the self-cleavage was 0.419.
With G17C C29G the self-cleavage was 0.349.
In the case of C16U C43A, the self-cleavage is reported as 0.352.
Variant C16U C43U has a self-cleavage of 0.495.
C16U C43G gave a self-cleavage of 0.352.
G17C A40G showed a self-cleavage of 0.373.
With G17C A40U the self-cleavage was 0.3.
For G17C A40C, the self-cleavage was 0.328.
In the case of C16A U21C, the self-cleavage is reported as 0.276.
C16A U21G gave a self-cleavage of 0.316.
C16A U21A showed a self-cleavage of 0.668.
In the case of C16G U32G, the self-cleavage is reported as 0.882.
In the case of C16G U32C, the self-cleavage is reported as 0.717.
C16G U32A showed a self-cleavage of 1.03.
In the case of C16U G39U, the self-cleavage is reported as 0.378.
Work on C16U G39C yielded a self-cleavage of 0.391.
For C16U G39A, the self-cleavage was 0.327.
For C16A U24G, the self-cleavage was 0.87.
In the case of C16A U24A, the self-cleavage is reported as 1.34.
Work on C16A U24C yielded a self-cleavage of 1.33.
With G17C the self-cleavage was 0.575.
G17A gave a self-cleavage of 0.768.
Variant C16G A37U has a self-cleavage of 0.606.
C16G A37C showed a self-cleavage of 0.737.
In the case of C16G A37G, the self-cleavage is reported as 0.533.
For C16G A44U, the self-cleavage was 0.335.
Variant C16G A44G has a self-cleavage of 1.18.
C16G A44C showed a self-cleavage of 0.373.
In the case of C16G A42C, the self-cleavage is reported as 0.334.
C16G A42G gave a self-cleavage of 0.346.
Work on C16G A42U yielded a self-cleavage of 0.26.
In the case of C16G A23U, the self-cleavage is reported as 0.295.
With C16G A23G the self-cleavage was 0.406.
Variant C16G A23C has a self-cleavage of 0.369.
For G17A C30A, the self-cleavage was 0.561.
Work on G17A C30U yielded a self-cleavage of 0.622.
G17A C30G showed a self-cleavage of 0.476.
With C16G C29G the self-cleavage was 0.496.
In the case of C16G C29A, the self-cleavage is reported as 0.39.
C16G C29U gave a self-cleavage of 0.646.
In the case of C16U A34G, the self-cleavage is reported as 1.08.
With C16U A34C the self-cleavage was 1.
C16U A34U showed a self-cleavage of 0.755.
Work on C16G G39U yielded a self-cleavage of 0.345.
With C16G G39A the self-cleavage was 0.254.
For C16G G39C, the self-cleavage was 0.368.
Work on G17A C20U yielded a self-cleavage of 0.442.
Work on G17A C20G yielded a self-cleavage of 0.367.
With G17A C20A the self-cleavage was 0.327.
With C16U G33U the self-cleavage was 0.945.
Work on C16U G33A yielded a self-cleavage of 1.14.
Work on C16U G33C yielded a self-cleavage of 1.17.
In the case of G17A A37U, the self-cleavage is reported as 0.528.
In the case of G17A A37G, the self-cleavage is reported as 0.604.
With G17A A37C the self-cleavage was 0.642.
G17A A42G showed a self-cleavage of 0.327.
Variant G17A A42C has a self-cleavage of 0.341.
Work on G17A A42U yielded a self-cleavage of 0.396.
In the case of G17C C38A, the self-cleavage is reported as 0.451.
G17C C38G showed a self-cleavage of 0.452.
G17C C38U gave a self-cleavage of 0.453.
G17A A44G showed a self-cleavage of 0.742.
Work on G17A A44U yielded a self-cleavage of 0.449.
With G17A A44C the self-cleavage was 0.513.
G17C G27U gave a self-cleavage of 0.349.
In the case of G17C G27A, the self-cleavage is reported as 0.446.
For G17C G27C, the self-cleavage was 0.354.
For G17A U19G, the self-cleavage was 0.332.
For G17A U19C, the self-cleavage was 0.23.
With G17A U19A the self-cleavage was 0.386.
For C16G A41U, the self-cleavage was 0.393.
With C16G A41G the self-cleavage was 0.398.
Variant C16G A41C has a self-cleavage of 0.376.
With G17A G22C the self-cleavage was 0.319.
Variant G17A G22A has a self-cleavage of 0.315.
In the case of G17A G22U, the self-cleavage is reported as 0.345.
For C16U U21G, the self-cleavage was 0.588.
C16U U21A gave a self-cleavage of 0.698.
C16U U21C showed a self-cleavage of 0.473.
C16A U28C showed a self-cleavage of 0.722.
C16A U28G showed a self-cleavage of 0.638.
For C16A U28A, the self-cleavage was 0.434.
G17A U28A gave a self-cleavage of 0.42.
In the case of G17A U28C, the self-cleavage is reported as 0.331.
With G17A U28G the self-cleavage was 0.567.
C16G G45C gave a self-cleavage of 0.397.
With C16G G45A the self-cleavage was 0.533.
Work on C16G G45U yielded a self-cleavage of 0.467.
C16G A34G gave a self-cleavage of 0.655.
In the case of C16G A34U, the self-cleavage is reported as 0.709.
In the case of C16G A34C, the self-cleavage is reported as 0.647.
In the case of C16U A26G, the self-cleavage is reported as 0.358.
C16U A26C gave a self-cleavage of 0.467.
Variant C16U A26U has a self-cleavage of 0.816.
For C16U G22A, the self-cleavage was 0.386.
C16U G22C gave a self-cleavage of 0.318.
With C16U G22U the self-cleavage was 0.327.
In the case of C16U A37C, the self-cleavage is reported as 0.843.
With C16U A37U the self-cleavage was 0.848.
For C16U A37G, the self-cleavage was 1.02.
Variant G17C A37U has a self-cleavage of 0.359.
Work on G17C A37G yielded a self-cleavage of 0.355.
G17C A37C gave a self-cleavage of 0.505.
